A protein production outcome set (Wang et al. 2014)

Experiment: label from the status in PepcDB records

Sequence	protein production
MLTKFKSLPKAVYAILALSFLLHVFCLVKQPGLDGELVKVTYGANDAFNYSLTAEQLLKHGVFGYVYLEPSEVPGKNAYITPGQPLLLAGAMIISDITSIPYYYVATVINMIMNLCTVLLVFLIGKELFEKNIYGIVASILYAIYPSNYTYFRTLLTEVPSIFLLALCVYVFVLAWKYNKVKFHIWFGIVVSILLMFRPNPAPMMLIPVLVVLFTYGFKDSIRIGLLWFIGPFFIIGAWVVRNYLALNQFILFSTQGADPLIAGADPFNKIGYENIVNEMRAKGLDDKGAYAKELIKNGFKTDFTYWFSWFTVGKTIELFKTAPAVDQYRIHNFMQLCHRVFIIGTFLSSFCFMLNSFKHKRVMMLVASSIIYIIFSNLFLAINRYGFFINPLMCLILAYGLIHIVQKLPFFRTNQA	failed
MPHAVQGQPENAVHPPQGTAWPGLEPPEGFLMANPRLSRRHVRRMRSERPPPTTRPPDWRFPMKSTLNLLLTVSLALSGAGLAQTAPNVPTQAAPTTAAPANAAQLAAEARDLTNRARTTYPAGSASIDQPLWKQAADRAEAAVSAAPNNPDVLRLRAQIYTEVGFWKQAESSWRAYFAVAPVAAGQNEARAAGNVQYNLGYAAYTRGQSAQAAAYFKACLTLDPQSVPCATWAARTALESGDYALAQNLYTQALSLAPTDKTLNYFAQVARNASTYGPAATQAFSRAYASLDAGRRAEALAGFQEAARSAPNFPEAQREAGRLALEAGDTGAALSAYQALAALPGATDSDRYNLGLAQEGQQYGLRAVQTFRTAYGKYSAGDKAGAEAGFLQATTASANYGKAWAWLGRVRYEAKNYAGAAEAYGRAVALDPGDKTSAYFLKLAQQGK	failed
MALMTNKTRALLIGGHGKVALLATPMLIDASVQVTSMYRNPDHRSEIEALGATTLERDVTTLSVEDWADLLKDFDVVVWSAGNGGKNGADATYAIDRDAAIASIDGAASLGEKAPRYIMVSYIGSSTHTIDPSASFYPYAESKKAADEHLSSTNLDYLILAPAALTLDEVNGVEVIADTNEAAAGRTTSRVLVAEVITEFVVRDFPQTRVLPFVDGESPLEHHHHHH	not failed
MNPTTLADVDTVIINANILTLDRDCPHAQAIAFAAGRILALGTTQELSPLAGRAATVVDARGSTLLPGFIDSHSHLMFGGVVAQALDLTEAACLSDLLDMVRSRAQSTPEGEWIRGYGVAAGRLKEKRYPTRQELDQVSGGRPVWLAEDSFHASLVNSKAFRMLEIPLSTPGVELAADGSPTGAFLNDAANVPARQRVFGFISDDEARQMLQHVTQLGATRGVTTVHAFEGSRMSADRDIELLMRFRHELPIHVVPYYETFDVERAMQLGVSGVGGCGRNCLDGMPNIQTAAMVDPYCCSEERGSLFQESIKLHNFVIAAFERGMQVGMHAMGDAAIEQLLATYERAIEETGRTDLRPRIEHFHVPSRDHVRRAADLGVGLAVQPIFTHLWGGRDGIFFERLGERRYKRIDTYREILDSGAIASCGADLPVHPADPLRWIQLLVDNQIDRDQSVSMTEAIRMCTYNGAWLGFQESETGTLAVSKAADAVMLGRDPHQCMPHEIAAIPILKTLGGKLVFESSRPLEHHHHHH	failed
MSAPSDTPTYLHGFSATEQARLLKQARLLETTLFNQIDYSGARRLLEVGSGVGAQTEILLRRFPELHVTGVDLSETQLDAARANLERLAWCRARYTLQQADASDLPFEARQFDAAFLCWVLEHVPSPARVLNEVRRVLLPGSPVYVTEVMNASFLLHPYSPSLWRYWMAFNDFQHDQGGDPFVGAKLGNLLLAGGFRDVHTQIKTLHLDNREPGRRKTMIGFWEEVLLSAADQLLQAGAVEAATVDGMRRELAQVHSDPDAVFFYSFVQARATVY	failed
ISDQAETPMFNIGSAVPRGELVLAMEKIGKLLQERGGSVVIRGHTDGRQFKGEANDNWRLSMDRAHSAYYMLVRGGLSEERVKQVSGFADRRLQVPSNPLADANRRIEILLEADRG	failed
VLASILLSQAAYESNYGSSLLSVKYHNIYSLPARPGQEHIYLKDNVYSKGKWQYQKVDFAVFRDWSSSMSSYLEELRQGRWGESTYKEVAGTTSYKVAAEKLQAAGFNSDPDYTKHLISIIETYNL	failed
MAAERKTKLSKNLLRMKFMQRGLDSETKKQLEEEEKKIISEEHWYLDLPELKEKESFIIEEQSFLLCEDLLYGRMSFRGFNPEVEKLMLQMNAKHKAEEVEDETVELDVSDEEMARRYETLVGTIGKKFARKRDHANYEEDENGDITPIKAKKMFLKPQD	not failed
MSVKRVLRNTIRKEKEENRVTEPLTETPELSAKYAWFFDLDGTLAEIKPHPDQVVVPDTILQGLQLLATASDGALALISGRSMVELDALAKPYRFPLAGVHGAERRDINGKTHIVHLPDAIARDISVQLHTVIAQYPGAELEAKGMAFALHYRQAPQHEDALMTLAQRITQIWPQMALQQGKCVVEIKPKGTSKGEAIAAFMQEAPFIGRTPVFLGDDLTDESGFAVVNRLGGMSVKIGTGATQASWRLAGVPDVWSWLEMITTALQQKRENNRSDDYESFSRSI	failed
MPEASSPASEKSLSRLLLELLWQLAALLIPIFFVTLLPPPAALGVLLGCAAAMTLAARLGWPKTARGLARLMISAAFGLGFSLGRALPAYWDIAAAFTSIFAGLAAVSHLERRLGLVQPSPTPISAWGGNEPQQTPEGQPIRVFNHGEIAMGGPTYCDYLFPDGVLLQGLGSSARFSSDGRYFAAPLPSRQHWGLAILDREQRRLYRCNREHFWELDAFSADTLSGRHSPLVDNGQHQASLNSLLQEAECVELVAVADLWLEPGQWLEALARQDFEESAPHGSHRLHASLALPASLRALEQPLEPLRTPPYRISIDGQPSGLLLRADAPRIWRDDGRALACIAHEQAQPEAACCWLWQADKGWRALPAPWVASHAEPSFYPGPLLSLDRHWLGYSAYLDLAEADHGRYGYRLHSTHSDSETGVGHDRQGCLQVAPLPLTRTQLLQPLDGSGARGESRIQSQPLLGEQRALFSWLTDNPRGLGAYRCQIGTWQLPGCWLLDHRVSDCQRYLALLPWSETLELAPQVVVADLQQQRLIYSPALLAARLLDFRQGRLSLAVLVGRLDPDHASSPLQRFNRPAPAPEHAAAFCTEGPASQPCYERQDWLVIDDQLQPVAPWRLVDRPQAAVAEGDFIQPAPDGRDAAWLFGSETEYADSWLRETSPRLGGHLLTASGCAVGDLAPSLIWSTDARYLALTRLRLGAGDPQQGYRAWQLLLLDVQERSLRIAPDWLRHRPLFQHFDARGLALQLFERDWQAADDPDPGRSLEWALEDLLRLPAEPLREHQGLWLSAADWPQARAWQALRRPAHPAFRAGA	failed
MVPMASNNLAYIKLRLLSLLVGLGIAALASLIIYAVAYYLFGIYSIGIIFGVFVLVLMMDLLQWFIGPYIVDMVYRAKKADPNRYGNIIAIVEEVAKLNGIRPPTLYISEVSFPNAFAYESPIAGRRIAITRPLLGILNEDELRAVIGHEIGHLKHHDSAVIMAIGLIPTLIFYFAYTTLFAGDRRNGGSAIILALVLMVVSFLFNIMVLSVNRLRESYADANAALTIPNGARNLQTALAKIVRYGSSAKNTAASMLLFANYDMDREDVETLIDKWRTMRVGILSDLFSDHPHPAKRIRLLDKLQDSS	failed
MHILVTGFAPFDNQNINPSWEAVTQLEDIIGTHTIDKLKLPTSFKKVDNIINKTLASNHYDVVLAIGQAGGRNAITPERVAINIDDARIPDNDDFQPIDQAIHLDGAPAYFSNLPVKAMTQSIINQGLPGALSNSAGTFVCNHTLYHLGYLQDKHYPHLRFGFIHVPYIPEQVIGKPDTPSMPLEKIVAGLTAAIEAISNDEDLHLALGTTE	failed
MFMEVSLTSLPAHVMNALDAIWEGSIADSLESETLEFKEDPSCAGRGKQHGNPQAALIEKLIDEAVCLANGDAGTGHIVVGIKDKIGGPEAFTGTTFDTEKIAKKIFDGTRPNLRPEVHEVRYQNNRLIVIYIPEALSLYSRSKGQTSKRVGSHCEPLSEEQRRAIAATRAHADYSNGISEFNVDDIAADTIQEVRRLLKTKRAQSGIDTSLPTTTNGLLRELGLIDNYGALKRAGAILLLPAPEGQLSIRHFWRSFPGIDPEVTDYNQPLLIALSSLKRRITENANKEIKRIQFSDGQEIAVSAFPQTAVDEVVTNAIIHRDWRLSRPVVIDQSPQTLKVWSPGSLPVGVTPNRLLTTQSIPRNSRLMSAMRMLGLAEESSRGFDRIWAALLGSGRDIPDVHTEDTFVEVILHSGNPDESFIKALHELSLSFNPDMLHSVNTLIVLWHLWTSPVISLKQARVKTQTSSKEATELMFALESNGLLTQIHNTDEWFLSEKARKTTNYYQSETIPQSSVQTWVEEKLSSGSPISAAEIAESIGMPRPEITEILRNLRRAGKAHIDPSGPQRGSGTRWIKGT	failed
MESSKKMDSPGALQTNPPLKLHTDRSAGTPVFVPEQGGYKEKFVKTVEDKYKCEKCHLVLCSPKQTECGHRFCESCMAALLSSSSPKCTACQESIVKDKVFKDNCCKREILALQIYCRNESRGCAEQLTLGHLLVHLKNDCHFEELPCVRPDCKEKVLRKDLRDHVEKACKYREATCSHCKSQVPMIALQVSLLQNESVEKNKSIQSLHNQICSFEIEIERQKEMLRNNESKILHLQRVIDSQAEKLKELDKEIRPFRQNWEEADSMKSSVESLQNRVTELESVDKSAGQVARNTGLLESQLSRHDQMLSVHDIRLADMDLRFQVLETASYNGVLIWKIRDYNRRKQEAVMGKTLSLYSQPFYTGYFGYKMCARVYLNGDGMGKGTHLSLFFVIMRGEYDALLPWPFKQKVTLMLMDQGSSRRHLGDAFKPDPNSSSFKKPTGEMNIASGCPVFVAQTVLENGTYIKDDTIFIKVIVDTSDLPDP	not failed
MPRASISDTIPMTMASIDAGSVRFTARADKRHLNPLGGVHGGFAATVLDSVTGCAIHSILEAGVGYGTVDLSVKRVKAVPEDTPLVAEGRVLHVPCAIGSQRADLMLAPPRLGRDRRCPAGLEHHHHHH	failed
MKYSWNKTVFPIAAIFSFRLLGLFLLIPVFTLYATNLKGATPTLIGLALGSYGLAQGLLQIPFGMLSDKLGRKPMIAIGLLLFAGGSLLGAVTHSIAGMITARILQGAGAIGSVLIALLADLTLDEQRTKAMAIVGITIGTSFSLAMIISPALTHYYGLSGVFYLTAALAVLGIMILYLIIPNPSKEQFHADSEPSLSLIKPVVTDQHLQRLNFGIFCQHFILTATFFAIPMLLKYQIENGHLHQQWHFYLPLMLFSFILMVPFIIISERKKRLKTVFVISVLLTTFTQGLLVLASQNWYWFCILMFVYFVSFNVLEATLPSLVSKLASPGSKGTAMGIYSTSQFLGIFFGGSLAGILYQWYDNQAIFLINMILSCLWFIISLSMKSNVYFSTLILPFTANNEESKLVVNQLLKVAGIKEVILSKDENTLYVRVDNEEYSTGSAEKILHQSTIYQ	failed
MGMFERDTEIYLDRDALREDYQPENLVGRDTELNRYRAALQPVINGEQPNNIFLYGKTGVGKTAGTRYLIDHLEEDAAKYEDIDLTVKMLNCDGLSSSYQIATRLVNEFRDETSQISTTGYPRATVYDMLWTELDSCGGTIYIVLDEVDHIEDDSILYQLPRARANDNLSSAKIGIIGISNDFSFRDDLSPKVKSSLCEEEIQFPAYDAKELIQILQQRADVAFHDGVLEDGVIELCAAYGAKDAGDARQSLDLLMKTGDLARDKDTDTISEDLVREARDVLERGRIQEGISGLTQHGHLVVYAMVTLDQEGKTPARTRDIRPRYTNFAEKAGIDPLVPRRMRDHLGELSMLGIISAIERNEGRRGGTYREYSLEMDPEMILAALEKTVDDVGIHKSVTNLVDAEATLSDFQST	failed
